Drawing on paper PMC6823300, “The molecular basis of monopolin recruitment to the kinetochore” (Chromosoma, 2019), this text covers Kd for two molecules.

Where no end group is shown, it is not given here. The star is where a group is joined. FITC = O=C1OC2(c3ccc(O)cc3Oc3cc(O)ccc32)c2ccc(NC(=S)*)cc21

Test [1] concerns the target T1, S. pombe Csm1 C-terminal globular domain (residues 125–261), wild type (S. pombe, UniProt O13684 125-261).
T1 construct: S. pombe Csm1 (also called Pcs1), C-terminal globular domain, residues 125-261; also called S. pombe Csm1^125–261; Sp Csm1; source: E. coli Rosetta2 (DE3) pLysS, purified
T1 sequence (looked up): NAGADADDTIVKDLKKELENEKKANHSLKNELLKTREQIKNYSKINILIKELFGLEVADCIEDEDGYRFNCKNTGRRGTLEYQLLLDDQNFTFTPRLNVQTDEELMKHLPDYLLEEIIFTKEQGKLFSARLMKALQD
The test is described as follows: fluorescence polarisation; Csm1 125–261 at 20 nM-250 μM with 20 nM FITC-labelled Mis13 5–17 peptide; 20 mM Tris 7.5, 300 mM NaCl, 10% glycerol, 0.01% NP-40, 1 mM DTT; triplicate; single-site binding model. The note with it: both partners purified.

Test [2] has as its target T2, S. cerevisiae Csm1 globular domain (residues 69–190 of 190), untagged (S. cerevisiae, UniProt P25651 69-190).
T2 construct: S. cerevisiae Csm1, globular domain, residues 69-190 of 190; also called Sc Csm1^69–190; untagged Csm1
T2 sequence (looked up): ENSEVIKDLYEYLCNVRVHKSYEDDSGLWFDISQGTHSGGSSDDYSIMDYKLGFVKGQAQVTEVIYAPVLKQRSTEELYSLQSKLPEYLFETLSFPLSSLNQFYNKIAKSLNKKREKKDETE
The test is described as follows: ITC; Microcal ITC 200; His6-MBP-fused Dsn1 fragments at 1–1.5 mM injected into a sample cell containing untagged Csm1 at 100–200 μM; protein buffer (20 mM Tris-HCl pH 7.5, 5% glycerol) plus 300 mM NaCl and 1 mM dithiothreitol. The note with it: both partners purified. (In general: In ITC the heat of successive injections is recorded.)

B1: Sp Mis13 5–17 peptide (Dsn1-N/Box 1), fluorescein isothiocyanate-labelled (peptide)
peptide: {FITC}-PEEQEGFVFVRKG
notes: S. pombe Mis13 (Dsn1), Dsn1-N/Box 1 region, residues 5-17; also called Sp Dsn1-N/Box 1 (residues 5–17); S. pombe Mis13 Dsn1-N region
In the case of B1, in test [1], binding was characterised by a dissociation constant (Kd) of 22 µM.

B2: His6-MBP-fused S. cerevisiae Dsn1 Box 1-2-3 region (residues 71–110 of 576) (domain or fragment, UniProt P40568 71-110, looked up)
chain: DLKFKRHKNKHIQGFPTLGERLDNLQDIKKAKRVENFNSS
notes: S. cerevisiae Dsn1, Box 1-2-3 region, residues 71-110 of 576; also called Sc Dsn1^71–110; His6-MBP-fused Dsn1 fragment; source: E. coli Rosetta2 (DE3) pLysS, purified
For B2, the Kd in test [2] stood at 12 µM.

One may read the Kd as a measure of binding affinity in units of concentration.
